This series can be described thus: soluble fraction after stress (log2 fold change); higher = more stays soluble; pooled small domains, quantitative proteomics. To be noted: stress: pH 4. A digest of the protocol: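 Aggregation propensity is read out as the fold change in how much of each domain remains soluble after acid stress. The custom small-domain libraries were pooled, held at pH 4 and analysed with high-throughput quantitative proteomics. On the log2 scale used, higher values mean more of the domain stayed soluble.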

Turning to “HMGRPTLEQLLDRAQAMGVPRERYAAYADRRWGRGWRVNPHGRGRAWDELDRYRNDPAGYLDKIEVELNQL”, the “soluble fraction (log2)” value was -0.0109.

With “HMGRQVTVPNVTGMLVEEARAAISEAELWVDSPRAVQGEVTRQEPARGERLSPGQEVRIYTES”, the “soluble fraction (log2)” value is -0.568.

As to “HMGRRSKAMLSSALDAVPGLGEMRRKALISQFGSLKKLRGATPEEIAAVPGIGPKLAAAVHEAVSG”, the “soluble fraction (log2)” value amounted to 0.131. As for “HMGRSTQVPGVEKMTYSQAVQLLHDHGFRVDIRDSLYRDDIKPGHVIEQFPKAKSIVKPGRKIFLYINAV”, the “soluble fraction (log2)” value is 0.105. In the case of “HMGRTGTVVVSPSLNVRTGPWGEIIGSLYNGNKVEIIGSSGDWYQISFGGKTAYVHSDYVVDGG”, the “soluble fraction (log2)” value was -0.779. Next, “HMGSDAFDISKLNLVGKTKESAESLLKENGFSVDTKEEASDTAAKGTVISYSPTKPKNGERVTLTVSSGK”: 0.243. Turning to “HMGSDQEAAMARQDRLSTLVDYVVERGSVHVDDIVADLGVSPATVRRDLDALAAQQLIIRTRGGATANHT”, the “soluble fraction (log2)” value is -0.552. Next, “HMGSGKGAAHTILGISADASDDEIKAAWRKLVQENHPDKLVSQGLPDEFVQAATDRLRLINTAYQSMLNRP”: -0.328.

Take “HMGSGLAAAEKIRKAHPEIKIVVATSLIDTQVLARAKAVGADSLWYKDGDEGTLMQVVRRTMAGDHIFP”: the “soluble fraction (log2)” value was -0.366. Regarding “HMGSIGAMLSSPELYGKLATNPATRGFLSQPDFIAMLTDVQKNPDKFGSYMSDPRMMQVLSVALG”, the “soluble fraction (log2)” value is -0.103.

For the sequence “HMGSIRDIIVQYLSKFDDPQPAAKIVEYVQQYRDTTESSIRSSMGSGDQFVQFSGGLYGLKDKTYAAWYSI”, the “soluble fraction (log2)” value was -0.383.

On to “HMGSLKISNPVKDTLWIQGVDGLKSIEIYSSTGQLVKTILGNQGDVSSLPKGVYFLKINTPSESLTAKIIK”, for which the “soluble fraction (log2)” value was at least 0.43.

With “HMGSLPPPKDGTTIYVVKPGDSLWRISGKFFGNPLFWPRLWEINPNIDNPNKIYPGDVISLKP”, the “soluble fraction (log2)” value was found to be 0.219.

In the case of “HMGSLVKLQSAAELHQAGRSAEAVPILLEVLATNPRLVDGWEILANALEKLGRLDEALAALKKTVALSPPG”, the “soluble fraction (log2)” value is -1.23. Consider “HMGSNENTIREYFDSLIASASKREIMDANPTMSQRTVERILQKLQAEGYVEKIGAARSTRYRRA”, for which the “soluble fraction (log2)” value was -0.0919. For the sequence “HMGSQLYTLEVEADEKISLIENNPLLIQKIYLKDNNLFSYKIASSSKTEIASIEKELEKNPSIKRLETA”, the “soluble fraction (log2)” value is -0.502.

For the sequence “HMGSQQIEEGMRRLVASGALRPGASVPSVRDLARDLQVNPATVVRAYQRLVDAGLLVVRRGEGTFVAE”, the “soluble fraction (log2)” value is -0.103. As to “HMGSSLLSPKEREVLQLLAGNLSNKQIALAMGVSDETIKWHLRNLFGKLNAGGRKHLIDRARMLGLLAAA”, the “soluble fraction (log2)” value was -0.153.

Regarding “HMGSVHDAATDRIREMILGGQFEPGERLRQDDLATSLGVSTMPVREALRQLQAEGLVVFYPRKGAVVAR”, the “soluble fraction (log2)” value is -0.173. As for “HMGTAEDYLLPRRAEILSIIRDHEFANFDLIRRRFLAVNERTLRYDLKKLSDLGLIKKLGKTRGVYYRAAK”, the “soluble fraction (log2)” value was at least 0.43. Turning to “HMGTAVKAPMPGTILKVNVTAGQSVKAGDIMFILEAMKMENEIVAPSDGTVSQVVAAKGSSVATDDVLAYL”, the “soluble fraction (log2)” value was -0.0993. Next, “HMGTDGLKDIVLEILKEHPNQLAELIDGKQKVLGFLVGQVMKKTNGAANPKEVNEIIQGEIKK”: -0.433. For the sequence “HMGTELSYSEFLNKVEAGEVTNVTIRGPEITFQTGNSSYTTYAPDDPKLIEHLTAKGVAIKAGP”, the “soluble fraction (log2)” value is -0.311.

On to “HMGTGELLVHVIGAVHSPGVVRLPTGARVVDAIDAAGGAREDAQTEQLNLARLVDDGEQVRVPVVGESVD”, for which the “soluble fraction (log2)” value was 0.00081. In the case of “HMGTGIKQVNVVSVIGQDEETAKTTLTNLGLKVNVTYATSTSDNGKVTKQSIDAGKTVDEGTSVTITVNKV”, the “soluble fraction (log2)” value is -0.269.

In the case of “HMGTHSAEQVRAAIRAIVAAEDAANPLSDARITELLAMRGIAAARRTVMKYREQLGIPSSAKRRR”, the “soluble fraction (log2)” value is at least 0.43. As for “HMGTHVVQEGEYLDLIIEKTIPGSPIRKDLLRKAFVKLNPSAFGGRGNPNYIFARKKLKVPSVEDLKAVIF”, the “soluble fraction (log2)” value was -0.36. For “HMGTIEEYSKYLINQYFDSLKKPMDAMTTSEKIEIVKSLDKKGIFNLKGSVGELAKRFNTSEKTIYRYLSS”, the “soluble fraction (log2)” value amounted to 0.00746. As to “HMGTKRWELPRRVQQMATQHGKSISTAAAEELVSRSGENTRMLDNDLVKLAQMVEAPQIELADVERWIVR”, the “soluble fraction (log2)” value was found to be 0.335. For the sequence “HMGTLPSLAPSGEKTVRLPNLAGWSLRETMEILQKGGLQLLPIGSGISFKQSPPPGTTLNEGDAVTVWF”, the “soluble fraction (log2)” value came to 0.103. Next, “HMGTNTTGWIKIADDWKYIDSNGEYTVNDWRQSADGGWYYLGYNGNMLKNQTTPDGYYVDAEGLWDGMSPA”: -2.31. Next, “HMGTPEQVVVSSVLKETNEIVLKWPADGFMAKYKMDNLNLNFEPVHGQGVMGYFIGSRLIKLELV”: -0.33.

On to “HMGTPSAEELAFSAQKGNAVMRIMEIREKYIENGGQISDEERNEIERLIAIYYPKASIFDYLPMMG”, for which the “soluble fraction (log2)” value was -1.42. “HMGTSFEDIDRAVKSVRKPETDEAEKLHAGKTFKDIAETELFQKLTESFAGISDRVNEVIDLYTARAAE”: the “soluble fraction (log2)” value is 0.143. Regarding “HMGTSSAEIAAELRAQIFAGELRPGEMLPSAREITGTWNVAIATASRVHALLRSEGLATPVPGVGTVVAT”, the “soluble fraction (log2)” value was -0.17.

“HMGTTAWISTKTANGSVNIRTGPGTGYGVIGWALNGDKLEVLSRGTSWHYVKLVKNGKIGYVSASYVSFTQ”: the “soluble fraction (log2)” value was -0.399.

In the case of “HMGTTKGVVDVTVPNGRASQHVKLVVIDDDGGRVVYDGTNAPGDRIVKSVSGSGNVRVQIYLNNALVQEQS”, the “soluble fraction (log2)” value was -0.306. Turning to “HMGTTMLEVPNFVGEVFKEIDPEKYPNLRLVDSDYTYSNEYEAGKVISQDPVARTQVAEGSTVKLVIS”, the “soluble fraction (log2)” value was -0.249. Turning to “HMGTVISVDKARSIALAKVPGASANDIRIHLDRDDGRQIYEGEIYYNRMEYEFEIDASTGTIIEWSAEHW”, the “soluble fraction (log2)” value came to 0.00283.

“HMGTVQSVDRALLLLSEIGREPGGLVDLSTRVRLATSTTGRILATLEHAGAVVRGDDGIYHIGPLVHGMVS”: the “soluble fraction (log2)” value is 0.0724. For the sequence “HMGTYSKQDLLQLIGRYPDGIGKREINLAFSKGTKIRNLLNIELNELLNERLITLSQGGLYIKP”, the “soluble fraction (log2)” value is at least 0.43. As to “HMGVAFAPVEKIKHTKTGNELYAVKLAGRVEAEVFGQLRQKAKEYDGYYSKFSRAFLFSTPEDAEAFRAE”, the “soluble fraction (log2)” value is 0.276. In the case of “HMGVDIAEHDGQPAVSIRKGAAESVAQWVKDQGGTFPQEVEMTVQNVARAGGTPLVVARGRDVLGVIYLKD”, the “soluble fraction (log2)” value was -0.281. Regarding “HMGVDKLTPREREVLALMAQGASNREIEGKLVLTAGAVSKHVANVFMKLGFSPEDENRRVKAVLAWLRTK”, the “soluble fraction (log2)” value worked out at 0.225. As to “HMGVGIEALAVEVDRIRQVLTGGGALSDIQLFSQLKALGEVKTALSSMTDPRARELEKRVAQLLEASLRT”, the “soluble fraction (log2)” value is -0.323. Next, “HMGVKHKHKGAGELLAALRTMFPNSSVSTLRKMLTQGRVVLNGEVVHRAKHELTDGDTIEVLERQRAER”: 0.228. Consider “HMGVKIELNENEQAIFAAMQKQVEAVLPDLRAQFADMSNKAWDNSVKTLTKNNLLKVSKEAEILFIRL”, for which the “soluble fraction (log2)” value was -1.09. Take “HMGVKTDKYYYQMATETRVNKHYGLSNQYIATLISEYPRSPLIPNASILSKKNNADLALIDQSINQR”: the “soluble fraction (log2)” value turned out to be 0.155.

Regarding “HMGVLSPRQSQILALVAQGLGNREIAERLHIAPTTARDHVQAIMRRLNVNSRAAAAVMGVKLGLI”, the “soluble fraction (log2)” value was 0.085. With “HMGVNEGVNKLFKTIQETPGKRMPYYALATDVPEKTIERWLKQLREEGKIEFKGSAKTGGYFVIDK”, the “soluble fraction (log2)” value came to 0.22.
